In the Human Domainome abundance scans (Beltran et al. 2025):

B1: Serine/threonine-protein kinase LATS1, residues 98 to 141; numbered along this chain, O95835 (parent)
chain: TSEVNPQMLQDLQAAGFDEDMVIQALQKTNNRSIEAAIEFISKM

Variants of: B1
Assay: abundance fitness (aPCA) (normalised: wild type 0, dead -1); higher = more abundant; growth selection in yeast, the domain comes from the species named
Settings: Homo sapiens

Abundance fitness, by site and new letter:
A15: G -0.492; L -0.003; W -0.442; K -0.046; Y -0.181; Q 0.042; S -0.309; H -0.36; N -0.309; R 0.022; I -0.238; M 0.103; C -0.287; D -0.358; E -0.308; F -0.3; P -0.954; V -0.429
G16: N -0.494; P -0.687; R -1.1; A -0.725; S -0.88; Q -0.953; D -0.5; C -0.914; I -1.34; T -0.72; M -0.962; V -1.11; E -0.617; H -0.275; L -0.898; K -1.03
Q7: K 0.009; N -0.227; G -0.157; T -0.079; L -0.296; V -0.147; E -0.036; R -0.129; Y -0.345; I -0.223; F -0.549; M -0.178; P -0.796; D -0.111; C -0.354; S -0.149
V22: E -0.355; S 0.183; R -0.623; L -0.538; W -0.796; A 0.18; Q -0.48; G -0.008; H -0.618; T -0.262; C 0.11; M -0.674; N -0.448; P -0.47; Y -0.824; F -0.807
Q24: P -0.323; T 0.009; D -0.005; N -0.146; K 0.035; H 0.055; M -0.028; C -0.043; E 0.083; V -0.033; I -0.015; A -0.066; R -0.103; F 0.019; L 0.013; S -0.196; Y -0.222
D11: K 0.083; L -0.153; P -1.08; G -0.479; S -0.021; H -0.182; Y -0.086; A -0.017; Q 0.092; T -0.048; F -0.045; M -0.154; R -0.134; I -0.083; E 0.091; N -0.004
D18: M -0.59; N -0.21; Q -0.077; P -0.113; V -0.597; G -0.169; W -0.853; R -0.22; S -0.169; F -0.564; H -0.159; E 0.036; Y -0.837; K -0.117; L -0.617; T -0.204; A -0.032; C -0.187
N5: W -0.828; L -0.878; V -0.716; Q -0.528; I -0.82; T -0.628; K -0.638; M -0.951; Y -0.964; P -0.637
I23: S -0.183; Y -0.211; D -0.283; Q -0.158; R 0.024; H -0.314; W -0.373; V 0.039; M -0.055; L -0.188; F -0.261; P -0.591; K 0.041; G -0.322; A -0.115; N -0.104; T -0.041
A25: H -0.937; D -0.541; I -0.631; G -0.443; E -0.668; K -0.684
A14: W -0.706; Y -0.339; Q -0.132; D 0.04; C -0.325; V -0.308; M -0.151; T -0.206; G -0.19; L -0.188; P -0.898; E 0.039; K 0.007; R -0.095; S -0.047; F -0.455
L12: H -0.573; S -0.616; G -0.57; K -0.658; M -0.119; R -0.715; D -0.469; T -0.636; Q -0.594; A -0.607; E -0.477; I -0.364; F -0.737; Y -1.06; V -0.562; W -0.951; P -0.644
M8: W -0.208; P -0.717; A -0.525; Y -0.151; V -0.508; G -0.583; S -0.543; K -0.485; R -0.597; I -0.431; T -0.447; Q -0.541; L -0.203; F -0.162; C -0.778; D -0.419; H -0.244
Q10: D -0.12; P -1; K 0.013; M -0.128; I -0.267; R 0.012; C -0.225; W -0.295; V -0.253; S -0.07; A 0.015; L -0.173; F -0.247; H 0.019; N -0.105; G -0.231; T -0.195; E -0.077
E19: D -0.154; R 0.078; F -0.31; T 0.046; Q -0.012; A -0.097; K 0.08; S -0.035; V -0.17; N -0.233; G -0.103; C -0.218; P -0.104; W -0.75; L -0.26; M -0.228
D20: E 0.007; Y -0.535; W -0.268; M -0.168; N -0.06; C -0.208; I -0.384; L -0.288; P -0.166; Q -0.07; R -0.142; T -0.059; A -0.047; V -0.261; S -0.063; K 0; H -0.234; G -0.081
M21: S -0.038; A -0.019; E 0.043; G -0.363; V 0.059; F -0.291; H -0.294; T 0.088; Y -0.33; D 0.023; L 0.032; Q 0.077; C -0.126; P -0.491; R -0.268; K -0.059; W -0.32; N -0.148
F17: K -0.648; Q -0.366; V -0.501; M -0.336; R -0.648; T -0.609; E -0.272; L -0.342; G -0.465; S -0.495; A -0.449; I -0.399; W -0.198; C -0.488; N -0.116; P -0.601
L9: F -0.082; P -0.53; H -0.35; N -0.445; K 0.136; Y -0.421; V -0.045; G -0.481; E -0.273; Q -0.124; W -0.649; S -0.125; A 0.004; R -0.104; T -0.166
Q13: M 0.046; W -0.851; R 0.059; S -0.127; E -0.18; K 0.084; H -0.42; C 0.037; Y -0.53; A -0.131; I 0.071; L 0.104; F -0.536; V 0.067; T -0.002; D -0.538
P6: M 0.005; W -0.201; F -0.115; V -0.032; G -0.048; L -0.13; S -0.052; Y -0.119; C -0.219; Q 0.081; N 0.249; H -0.001; R 0.039; E 0.07; A 0.037; D 0.007; K 0.101
